# Measured values: doi:10.1101/680314 (bioRxiv, 2019)
# How the values were obtained:
# GST-Nuf2-Ndc80 complex = GST-Nuf2-Ndc80 complex (UniProt Q9BZD4;O14777); test: pull-down
# Nuf2-Ndc80 complex = Nuf2-Ndc80 complex (UniProt Q9BZD4;O14777); test: SEC
# Nuf2-Ndc80 complex, sequence (Q9BZD4 whole entry, chain 1 of 2): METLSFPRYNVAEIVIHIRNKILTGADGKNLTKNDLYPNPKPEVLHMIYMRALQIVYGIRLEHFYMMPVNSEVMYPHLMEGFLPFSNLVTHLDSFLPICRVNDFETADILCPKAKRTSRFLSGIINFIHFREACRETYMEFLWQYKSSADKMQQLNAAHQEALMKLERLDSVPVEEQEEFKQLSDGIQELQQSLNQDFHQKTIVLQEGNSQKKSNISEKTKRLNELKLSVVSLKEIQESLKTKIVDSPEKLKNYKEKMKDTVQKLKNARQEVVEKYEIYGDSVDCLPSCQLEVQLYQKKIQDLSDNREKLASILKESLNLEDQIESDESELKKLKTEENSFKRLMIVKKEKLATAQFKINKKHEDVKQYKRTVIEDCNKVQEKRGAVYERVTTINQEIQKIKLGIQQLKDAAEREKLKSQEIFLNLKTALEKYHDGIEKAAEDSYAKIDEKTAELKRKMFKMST
# Nuf2-Ndc80 complex, sequence (O14777 whole entry, chain 2 of 2): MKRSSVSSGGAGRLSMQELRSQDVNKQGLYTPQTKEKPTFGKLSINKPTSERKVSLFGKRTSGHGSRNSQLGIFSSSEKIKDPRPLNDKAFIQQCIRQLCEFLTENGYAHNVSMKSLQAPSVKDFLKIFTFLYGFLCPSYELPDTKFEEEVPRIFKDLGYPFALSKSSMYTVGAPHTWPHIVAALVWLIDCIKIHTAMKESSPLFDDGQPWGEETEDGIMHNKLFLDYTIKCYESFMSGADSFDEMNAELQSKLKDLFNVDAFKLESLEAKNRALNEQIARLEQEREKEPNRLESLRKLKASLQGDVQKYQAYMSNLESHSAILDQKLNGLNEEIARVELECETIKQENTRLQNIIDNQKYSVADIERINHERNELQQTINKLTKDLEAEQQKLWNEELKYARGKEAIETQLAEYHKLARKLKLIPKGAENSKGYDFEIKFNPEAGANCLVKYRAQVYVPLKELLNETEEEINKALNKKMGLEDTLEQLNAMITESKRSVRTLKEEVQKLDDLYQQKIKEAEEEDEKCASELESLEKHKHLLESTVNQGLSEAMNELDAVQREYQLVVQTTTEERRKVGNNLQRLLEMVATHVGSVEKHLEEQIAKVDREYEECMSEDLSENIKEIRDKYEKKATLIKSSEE
# GST-Nuf2-Ndc80 complex, sequence (Q9BZD4 whole entry, chain 1 of 2): as the sequence (Q9BZD4 whole entry, chain 1 of 2) above
# GST-Nuf2-Ndc80 complex, sequence (O14777 whole entry, chain 2 of 2): as the sequence (O14777 whole entry, chain 2 of 2) above
binder,measurement,setting,value
Ska1-Ska2-Ska3 6A complex (complex) chain 1: MASSDLEQLCSHVNEKIGNIKKTLSLRNCGQEPTLKTVLNKIGDEIIVINELLNKLELEIQYQEQTNNSLKELCESLEEDYKDIEHLKENVPSHLPQVTVTQSCVKGSDLDPEEPIKVEEPEPVKKPPKEQRSIKEMPFITCDEFNGVPSYMKSRLTYNQINDVIKEINKAVISKYKILHQPKKSMNSVTRNLYHRFIDEETKDTKGRYFIVEADIKEFTTLKADKKFHVLLNILRHCRRLSEVRGGGLTRYVIT chain 2: MEAEVDKLELMFQKAESDLDYIQYRLEYEIKTNHPDSASEKNPVTLLKELSVIKSRYQTLYARFKPVAVEQKESKSRICATVKKTMNMIQKLQKQTDLELSPLTKEEKTAAEQFKFHMPDL chain 3: MDPIRSFCGKLRSLASTLDCETARLQRALDGEESDFEDYPMRILYDLHSEVQTLKDDVNILLDKARLENQEGIDFIKATKVLMEKNSMDIMKIREYFQKYGYSPRVKKNSVHEQEAINSDPELSNCENFQKTDVKDDLSDPPVASSCISEKSPRSPQLSDFGLERYIVSQVLPNPPQAVNNYKEEPVIVTPPTKQSLVKVLKAPKCALKMDDFECVAPKLEHFGISEYTMCLNEDYTMGLKNARNNKSEEAIDTESRLNDNVFATPSPIIQQLEKSDAEYTNAPLVPTFCAPGLKIPSTKNSIALVSTNYPLSKTNSSSNDLEVEDRTSLVLNSDTCFENLTDPSSPTISSYENLLRAPAPPEVTKIPEDILQLLSKYNSNLATPIAIKAVPPSKRFLKHGQNIRDVSNKEN,binding result,GST-Nuf2-Ndc80 complex,binds
"Ska1-Ska2-Ska3 6A complex treated with Cdk1/Cyclin B1 (complex, treated with Cdk1/Cyclin B1 plus ATP; phosphorylated residues not stated) chain 1: MASSDLEQLCSHVNEKIGNIKKTLSLRNCGQEPTLKTVLNKIGDEIIVINELLNKLELEIQYQEQTNNSLKELCESLEEDYKDIEHLKENVPSHLPQVTVTQSCVKGSDLDPEEPIKVEEPEPVKKPPKEQRSIKEMPFITCDEFNGVPSYMKSRLTYNQINDVIKEINKAVISKYKILHQPKKSMNSVTRNLYHRFIDEETKDTKGRYFIVEADIKEFTTLKADKKFHVLLNILRHCRRLSEVRGGGLTRYVIT chain 2: MEAEVDKLELMFQKAESDLDYIQYRLEYEIKTNHPDSASEKNPVTLLKELSVIKSRYQTLYARFKPVAVEQKESKSRICATVKKTMNMIQKLQKQTDLELSPLTKEEKTAAEQFKFHMPDL chain 3: MDPIRSFCGKLRSLASTLDCETARLQRALDGEESDFEDYPMRILYDLHSEVQTLKDDVNILLDKARLENQEGIDFIKATKVLMEKNSMDIMKIREYFQKYGYSPRVKKNSVHEQEAINSDPELSNCENFQKTDVKDDLSDPPVASSCISEKSPRSPQLSDFGLERYIVSQVLPNPPQAVNNYKEEPVIVTPPTKQSLVKVLKAPKCALKMDDFECVAPKLEHFGISEYTMCLNEDYTMGLKNARNNKSEEAIDTESRLNDNVFATPSPIIQQLEKSDAEYTNAPLVPTFCAPGLKIPSTKNSIALVSTNYPLSKTNSSSNDLEVEDRTSLVLNSDTCFENLTDPSSPTISSYENLLRAPAPPEVTKIPEDILQLLSKYNSNLATPIAIKAVPPSKRFLKHGQNIRDVSNKEN",binding result,GST-Nuf2-Ndc80 complex,binds
Ska1-Ska2-Ska3 6D complex (complex) chain 1: MASSDLEQLCSHVNEKIGNIKKTLSLRNCGQEPTLKTVLNKIGDEIIVINELLNKLELEIQYQEQTNNSLKELCESLEEDYKDIEHLKENVPSHLPQVTVTQSCVKGSDLDPEEPIKVEEPEPVKKPPKEQRSIKEMPFITCDEFNGVPSYMKSRLTYNQINDVIKEINKAVISKYKILHQPKKSMNSVTRNLYHRFIDEETKDTKGRYFIVEADIKEFTTLKADKKFHVLLNILRHCRRLSEVRGGGLTRYVIT chain 2: MEAEVDKLELMFQKAESDLDYIQYRLEYEIKTNHPDSASEKNPVTLLKELSVIKSRYQTLYARFKPVAVEQKESKSRICATVKKTMNMIQKLQKQTDLELSPLTKEEKTAAEQFKFHMPDL chain 3: MDPIRSFCGKLRSLASTLDCETARLQRALDGEESDFEDYPMRILYDLHSEVQTLKDDVNILLDKARLENQEGIDFIKATKVLMEKNSMDIMKIREYFQKYGYSPRVKKNSVHEQEAINSDPELSNCENFQKTDVKDDLSDPPVASSCISEKSPRSPQLSDFGLERYIVSQVLPNPPQAVNNYKEEPVIVTPPTKQSLVKVLKDPKCALKMDDFECVDPKLEHFGISEYTMCLNEDYTMGLKNARNNKSEEAIDTESRLNDNVFATPSPIIQQLEKSDAEYTNDPLVPTFCDPGLKIPSTKNSIALVSTNYPLSKTNSSSNDLEVEDRTSLVLNSDTCFENLTDPSSPTISSYENLLRDPDPPEVTKIPEDILQLLSKYNSNLATPIAIKAVPPSKRFLKHGQNIRDVSNKEN,binding result,Nuf2-Ndc80 complex,binds
same,binding result,GST-Nuf2-Ndc80 complex,binds
